Test results as given in paper PMC7672437.

Molecular target: Human recombinant full length DDX3X (human) (UniProt O00571)

Human recombinant full length DDX3X (from UniProt O00571 1-662) (enzyme)
helicase activity (unwinding of dsRNA Substrate *R18: R38) against DDX3X concentration, cooperativity index nH: 1.5
helicase activity (unwinding of dsRNA Substrate *R18: R38) against DDX3X concentration, half-maximal enzyme concentration K1/2: 0.26 µM
nuclease (RNaseH2-like) activity against DDX3X concentration, cooperativity index nH (no cooperativity observed): 0.7
